Test results reported in the supplement of paper PMC9170038.

Test system: MS2 coat protein
Assay: apparent KD of MS2 coat protein; designed switch direction (-1 OFF switch, 1 ON switch): -1; higher = weaker reporter binding
How it was run: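 An oligonucleotide input, 200 uM small-molecule ligand, or no input was present during titration of SNAP-549-labelled MS2 coat protein, which was doubled from 0.7 or 1.5 nM to 3 µM. Designed RNA switches had been transcribed on Illumina chips by stalled E. coli RNA polymerase. Apparent KD per design is the median over clusters of curves fitted to normalised cluster fluorescence.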

[1] = Eterna round: R95, input ligand: microRNA oligo, concentration not stated
[2] = Eterna round: R95, input ligand: FMN 200 uM
[3] = Eterna round: R95, input ligand: none

Sequence | apparent KD of MS2 coat protein (input ligand: FMN 200 uM) | apparent KD of MS2 coat protein (input ligand: none) | apparent KD of MS2 coat protein [1] | other results
GAAUGAGAGCAGGAUAUCUUAAAAAUGUAUAAAAGAGAAGGGCUCACAUGAGGAUCACCCAUGUGGUCCUAGAU [jl-ex6-4.69 jandersonlee mod] (Eterna round: R97, puzzle: Exclusion 6) | 572 nM | 40.5 nM | – | –
GAAUGAGAGCAGGAUAUCUUAUAAAUGUAUGAAAGAGAAGGGCUCACAUGAGGAUCACCCAUGUGGUCCUAGAU [jl-ex6-4.76 jandersonlee mod] (Eterna round: R97, puzzle: Exclusion 6) | 645 nM | 35.2 nM | – | –
GACAAAGGAGGAUAUACAAUGUCCUGGUCUAACCCGAUGGCACAUGAGGAUCACCCAUGUAGAAGGCCUUUGCG [Eternabot (L1) Solution 4] (Eterna round: R97, puzzle: Exclusion 2) | 39 nM | 17.6 nM | – | –
GACAAGGGAGGAUAUGCACAAGGGAUAUCUGACAUGCCGAUACAUGAGGAUCACCCAUGUAGAAGGCCCGAAUA [Oneser] (puzzle: Exclusion 2) | – | – | 12.5 nM | –
GACAGGGCAGGAUAUCGAAUUCCUCACAUGAGGAUCACCCAUGUUCAGUCGAAAGACUGACGAGAAGGGCCGUGUC [Omei Ex5 E1] (Eterna round: R97, puzzle: Exclusion 5) | 1020 nM | 2290 nM | – | –
GACAGGGCAGGAUAUCGAGAUCCGCACAUGAGGAUCACCCAUGUUCGGUCGAAAGACCGACGAGAAGGGCCGUGUC [Omei Ex5 E5] (Eterna round: R97, puzzle: Exclusion 5) | 651 nM | 869 nM | – | –
GACCCACAUGAGGAUCACCCAUGUCAGGAUAUGCAGUUGGAUGCGUCAGAUUUCCAUAGCAGAAGGGAUCUGGC [Eternabot (Original) Solution 14] (Eterna round: R97, puzzle: Exclusion 1) | 16.5 nM | 18.2 nM | – | –
GACGCUAAAGGAUAUACAUGAGGAUCACCCAUGUUGAGGAAGGUUAGAUGAGGAGUAAGUAGAAGGUUAGGCGA [JR_Exclu3_Sub092] (puzzle: Exclusion 3) | – | – | 33.6 nM | –
GACUAGGGAGGAUAUAUUUACAGUGUACCUCGGGUGAUCGCACUUGAGGAUCACCCAAGUAGAAGGCUCGAGGG [EX2 #27] (Eterna round: R97, puzzle: Exclusion 2) | 30 nM | 35.9 nM | – | –
GACUAGUGAGGAUAUACUUGCAGUGUACCUCGGGUGAUCUCACUUGAGGAUCACCCAAGUAGAAGGCGCGAGGG [EX2 #23] (Eterna round: R97, puzzle: Exclusion 2) | 13.1 nM | 18.3 nM | – | –
GACUAUUCGUAGGAUAUACUACUUAGCUAUGGAGUAGAAGGACGAACAUGAGGAUCACCCAUGUGGGACCCGGG [Eternabot (L2) Solution 31] (Eterna round: R97, puzzle: Exclusion 6) | 125 nM | 81.2 nM | – | –
GACUGCUGAGGAUAUACAUGAGGAUCACCCAUGUGCUUCAGUAUCGAAAGAUGCAUGGGUAGAAGGUGGUAGUC [LRO-Excl3-09] (puzzle: Exclusion 3) | – | – | 80.1 nM | –
GAGAAACAUGAGGAUCACCCAUGUGAGGAUAUGUGAGACUAAAGCGCGCAGGCUAAGGACAGAAGGCACAAGGA [Excls1-Ia] (puzzle: Exclusion 1) | – | – | 42.6 nM | apparent KD of MS2 coat protein [2]: 57.5 nM; apparent KD of MS2 coat protein [3]: 53 nM
GAGAAAGCAAGCAAGUGAAACAUGAGGAUCACCCAUGUCCUCAUUUGCUCGUCUUAUAAAAGCUAUCGAAAGAUAGC [Mat - Sensor v3 - turn-off var 1 - Eli Mod - D48] (puzzle: Sensor v3, turn-off variant 1) | – | – | 139 nM | apparent KD of MS2 coat protein [2]: 13.2 nM; apparent KD of MS2 coat protein [3]: 10.3 nM
GAGAAGGUAGGAUAUACGAAGAAAGAGGGUAGUAAUAAUACACAUGAGGAUCACCCAUGUAGAAGGACCAAGAG [Mat - Exclusion 2 - Mod of my Tesla design - D45] (puzzle: Exclusion 2) | – | – | 24.7 nM | apparent KD of MS2 coat protein [2]: 35.9 nM; apparent KD of MS2 coat protein [3]: 21.7 nM
GAGAAGGUAGGAUAUACGAAUAAAUAGGGUAGGAAGAAGACACAUGAGGAUCACCCAUGUAGAAGGACCAAGAU [Mat - Exclusion 2 - Mod of my Tesla design - D35] (puzzle: Exclusion 2) | – | – | 18.1 nM | –
GAGAGGUCAGGAUAUACGGAGAGAGGGAGUUGGUGAGGGUAACAUGAGGAUCACCCAUGUAGAAGGGACUAAGG [JR_Exclu2_Sub077] (puzzle: Exclusion 2) | – | – | 22.8 nM | –
GAGCCACAUGAGGAUCACCCAUGUGAGGAUAUCAUGCUUCGUAGUAAACUACGAAGUGUGAGAAGGCACAAUGG [Omei Ex1 C5] (Eterna round: R97, puzzle: Exclusion 1) | 233 nM | 99.7 nM | – | –
GAGCCUAAUGUAGGAUAUCGAGGUCGGUGACGUCGAGAAGGACAUGAGGAUCACCCAUGUCGUAGCGGCGGGAACGCUGCUACG [first try -36 kcal] (Eterna round: R96, puzzle: Exclusion NG 1) | 82.9 nM | 274 nM | – | apparent KD of MS2 coat protein (input ligand: microRNA oligo, concentration not stated): 147 nM

Sequence | apparent KD of MS2 coat protein (input ligand: FMN 200 uM) | apparent KD of MS2 coat protein (input ligand: none) | apparent KD of MS2 coat protein [1] | other results
GAGCUAUGAGGAUAUGCAUAGAUACGGAUUCGUGUAGUACUACAUGAGGAUCACCCAUGUAGAAGGCGUGGCAG [Mat - Exclusion 2 - Mod of JL - D76] (puzzle: Exclusion 2) | – | – | 13.9 nM | –
GAGGAACAUGAGGAUCACCCAUGUGAGGAUAUGCAUAGUGAGGUAGUAGACGUUUAUUGCAGAAGGUACACUGA [JR_Exclu1_Sub079] (puzzle: Exclusion 1) | – | – | 25.6 nM | –
GAGGAGCAAGGAUAUACGAGGAUAGGGAAGUGAGGAGAGUGACAUGAGGAUCACCCAUGUAGAAGGUGCAAGGG [JR_Exclu2_Sub094] (puzzle: Exclusion 2) | – | – | 89.4 nM | apparent KD of MS2 coat protein [2]: 111 nM; apparent KD of MS2 coat protein [3]: 190 nM
GAGGAUAGAGGAUAUGCAUAGAUACGGAUUCGUGUAGUACUACAUGAGGAUCACCCAUGUAGAAGGCUGUCCUG [JL-ex2-2.01 mat747 mod] (puzzle: Exclusion 2) | – | – | 12.9 nM | –
GAGGCAUGCUGAGGUCCACACAUGAGGAUCACCCAUGUAAUGACAAGCUUUUUACUCAUCUUAUCGCUAUCGCGUUC [Tiinarre] (puzzle: Sensor v3, turn-off variant 1) | – | – | 66.6 nM | apparent KD of MS2 coat protein [2]: 19.1 nM; apparent KD of MS2 coat protein [3]: 16.3 nM
GAGGCCAUAGGAUAUCUGUUACGGGACAUGAGGAUCACCCAUGUACUGGCAAGUCCUCGGAGAGAAGGAUGACUCU [Eternabot (L1) Solution 68] (Eterna round: R97, puzzle: Exclusion 5) | 21.9 nM | 18.3 nM | – | –
GAGGUGUAAGGAUAUAGCUAUAGGCUAACCGGGACCCAUAGCUAGAAGGUACAUGAGGAUCACCCAUGUUUGCU [Eternabot (L1) Solution 99] (Eterna round: R97, puzzle: Exclusion 4) | 34.9 nM | 22.6 nM | – | –
GAGGUGUUAGGAUAUCGGAGAUGGAGACCAACGGGAUGAGCCGAGAAGGAACAUGAGGAUCACCCAUGUAGGUG [JR_Exclu4_Sub032] (puzzle: Exclusion 4) | – | – | 755 nM | apparent KD of MS2 coat protein [2]: 345 nM; apparent KD of MS2 coat protein [3]: 763 nM
GAGUAGUAAGGAUAUGUCUCUGGUGGCUACGGUCACUAGAGGCAGAAGGUACAUGAGGAUCACCCAUGUUCCUC [ExDelusion 8 - Jieux - Exclusion 4] (Eterna round: R97, puzzle: Exclusion 4) | 186 nM | 55.8 nM | – | –
GAGUGACAUGAGGAUCACCCAUGUGAGGAUAUCGGACGGACCAAAUUAACAACAAACGCGAGAAGGCACAUCGG [Exclusion 1 V19] (puzzle: Exclusion 1) | – | – | 74.9 nM | –
GAGUGACAUGAGGAUCACCCAUGUGAGGAUAUCGGACGGACCAAAUUAACAAUAAAUGCGAGAAGGCACAUCGG [Exclusion 1 V13] (puzzle: Exclusion 1) | – | – | 55.4 nM | –
GAGUGACAUGAGGAUCACCCAUGUGAGGAUAUCGGACGGACCAAAUUAACAAUAAUUGCGAGAAGGCACAUCGG [Exclusion 1 V14] (puzzle: Exclusion 1) | – | – | 52.1 nM | –
GAGUGACAUGAGGAUCACCCAUGUGAGGAUAUCGGACGGACCUUGUUGGCUUCCGCCGCGAGAAGGCACCUCGG [Exclusion 1 V27] (puzzle: Exclusion 1) | – | – | 32.5 nM | –
GAGUGAUGAGGAUAUACAUGAGGAUCACCCAUGUGCUUCAGCUAGGAGACUAGCAUUGGUAGAAGGCAUUACUC [Mod of lroppy 7 - Jieux - Exclusion 3] (Eterna round: R97, puzzle: Exclusion 3) | 90.1 nM | 15.8 nM | – | –
GAGUGCUGAGGAUAUACAUGAGGAUCACCCAUGUGCUUCAGCUAGGAGACUAGCAUCCGUAGAAGGCAGUACUC [Mod of lroppy 24 - Jieux - Exclusion 3] (Eterna round: R97, puzzle: Exclusion 3) | 37.5 nM | 14.3 nM | – | –
GAGUUAGCGUGUGGAAUAUACAUGAGGAUCACCCAUGUUAGCUUAUAUAUUGCUCGUCUUAUAACAACACUUAACUG [Mod JX-Electric-eye4] (Eterna round: R97, puzzle: Sensor, turn-off variant 1) | 42.7 nM | 45.8 nM | – | –
GAUAGAGAGCAGGAUAUCUUGGAUAAGUAUAGUAGAGAAGGGCUCACAUGAGGAUCACCCAUGUGGUCCAAGAU [JL Dibiri mod 12] (puzzle: Exclusion 6) | – | – | 14.8 nM | apparent KD of MS2 coat protein [2]: 28 nM; apparent KD of MS2 coat protein [3]: 15.8 nM
GAUAGUGGAGGAUAUACAUGAGGAUCACCCAUGUGAAGUUGCGUAAGUGACCCUUCCUGUAGAAGGCCAAGCAA [Eternabot (Original) Solution 31] (Eterna round: R97, puzzle: Exclusion 3) | 256 nM | 31.9 nM | – | –
